Source: patent US11708423B2, “Chimeric engulfment receptor molecules and methods of use” (CERO THERAPEUTICS, INC., priority 2017, dated 2023)

B1: CER126: Tim4 binding and transmembrane domains, TLR2 primary and TRAF2 secondary signaling domains; SEQ ID NO:174 (protein)
chain: MSKGLLLLWLVTELWWLYLTPAASEDTIIGFLGQPVTLPCHYLSWSQSRNSMCWGKGSCPNSKCNAELLRTDGTRIISRKSTKYTLLGKVQFGEVSLTISNTNRGDSGVYCCRIEVPGWFNDVKKNVRLELRRATTTKKPTTTTRPTTTPYVTTTTPELLPTTVMTTSVLPTTTPPQTLATTAFSTAVTTCPSTTPGSFSQETTKGSAFTTESETLPASNHSQRSMMTISTDIAVLRPTGSNPGILPSTSQLTTQKTTLTTSESLQKTTKSHQINSRQTILIIACCVGFVLMVLLFLAFLHRFHGLWYMKMMWAWLQAKRKPRKAPSRNICYDAFVSYSERDAYWVENLMVQELENFNPPFKLCLHKRDFIPGKWIIDNIIDSIEKSHKTVFVLSENFVKSEWCKYELDFSHFRLFDENNDAAILILLEPIEKKAIPQRFCKLRKIMNTKTYLEWPMDEAQREGFWVNLRAAIKSMAAASVTPPGSLELLQPGFSKTLLGTKLEAKYLCSACRNVLRRPFQAQCGHRYCSFCLASILSSGPQNCAACVHEGIYEEGISILESSSAFPDNAARREVESLPAVCPSDGCTWKGTLKEYESCHEGRCPLMLTECPACKGLVRLGEKERHLEHECPERSLSCRHCRAPCCGADVKAHHEVCPKFPLTCDGCGKKKIPREKFQDHVKTCGKCRVPCRFHAIGCLETVEGEKQQEHEVQWLREHLAMLLSSVLEAKPLLGDQSHAGSELLQRCESLEKKTATFENIVCVLNREVERVAMTAEAC
modifications: CER126 protein
B2: CER122: Tim4 binding and transmembrane domains, TLR2 primary and DAP12 secondary signaling domains; SEQ ID NO:149 (protein)
chain: MSKGLLLLWLVTELWWLYLTPAASEDTIIGFLGQPVTLPCHYLSWSQSRNSMCWGKGSCPNSKCNAELLRTDGTRIISRKSTKYTLLGKVQFGEVSLTISNTNRGDSGVYCCRIEVPGWFNDVKKNVRLELRRATTTKKPTTTTRPTTTPYVTTTTPELLPTTVMTTSVLPTTTPPQTLATTAFSTAVTTCPSTTPGSFSQETTKGSAFTTESETLPASNHSQRSMMTISTDIAVLRPTGSNPGILPSTSQLTTQKTTLTTSESLQKTTKSHQINSRQTILIIACCVGFVLMVLLFLAFLHRFHGLWYMKMMWAWLQAKRKPRKAPSRNICYDAFVSYSERDAYWVENLMVQELENFNPPFKLCLHKRDFIPGKWIIDNIIDSIEKSHKTVFVLSENFVKSEWCKYELDFSHFRLFDENNDAAILILLEPIEKKAIPQRFCKLRKIMNTKTYLEWPMDEAQREGFWVNLRAAIKSYFLGRLVPRGRGAAEAATRKQRITETESPYQELQGQRSDVYSDLNTQRPYYK
modifications: CER122 protein

How the values were obtained:
Format in all cases: cell-based
A549 ALK+ cells = experiment: MTT viability and bright field microscopy of A549 ALK+ cells with CER T cells and ALK inhibitor; settings: for in vitro growth/viability of A549 ALK+ cells (MTT): Alectinib or Crizotinib 250 nM-10 μM, E:T 2:1 and 5:1
Source text: An […] translocation was introduced into A549 cells. […] CER104 has a polypeptide sequence set forth in SEQ ID NO:133 and comprises a Tim4 binding domain, Tim4 transmembrane domain, and an engulfment signaling domain comprising a primary engulfment signaling domain comprising a TLR8 signaling domain and a secondary engulfment signaling domain comprising a DAP12 signaling domain. CER122 has a polypeptide sequence set forth in SEQ ID NO:149 and comprises a Tim4 binding domain, Tim4 transmembrane domain, and an engulfment signaling domain comprising a primary engulfment signaling domain comprising a TLR2 signaling domain and a secondary engulfment signaling domain comprising a DAP12 signaling domain. Effector:target (E:T) cell ratio for co-culture was 2:1 or 5:1. […] Cell viability experiments were performed in triplicates and presented as % of control. Best-fit curves were generated from raw data using linear regression models.
CER21−, CER108−, CER104−, and CER129-transduced CD4+ T cells were tested for their ability to kill A549 ALK+ cells in the presence of ALK inhibitor. CD4+ T cells were transduced with a lentiviral vector comprising a CER21, CER108, CER104, CER129, CER27, CER120, CER122, CER123, CER124, or CER126 nucleic acid. […] After 48 hours of co-culture, T cells were washed away and the number of viable A549 ALK+ cells was quantified using a calorimetric MTT assay (FIGS. 67A-B). Cell viability experiments were performed in triplicates and presented as % of control. Bright field microscopy images were also obtained from A549 ALK+co-culture experiments. […] Arrow indicates cluster of dead A549 ALK+ cells surrounded by phagocytic CER104+ T cells. […]

ALK+A549 cells = experiment: Phagocytosis of ALK inhibitor treated A549 ALK+ cells by CER T cells (fluorescent microscopy)
Source text: An ELM4-ALK translocation was introduced into A549 cells. […] CD4 T cells are modified to express CER104 or CER117 and labeled with CELLTRACE Violet. CER117 has a polypeptide sequence set forth in SEQ ID NO:144 and comprises a Tim4 binding domain, a Tim4 transmembrane domain, and an engulfment signaling domain comprising a primary engulfment signaling domain comprising a TLR8 signaling domain and a secondary engulfment signaling domain comprising a TRAF6 signaling domain. The ALK+A549 cells were then co-cultured with CER104- or CER117-expressing CD4+ T cells or Mock-transduced (vector only) T cells for 12 hours and images were obtained by fluorescent microscopy at 40× magnification (FIGS. 62A-E). White arrows indicate exemplary phagocytic events (pH rodo red cell targets within CELLTRACE Violet labeled CD4+ T cells).
CER123- and CER126-transduced CD4+ and CD8+ T cells were labeled with CELLTRACE Violet and co-cultured with the A549 ALK-positive cells. Co-cultured cells were imaged by fluorescent microscopy at 63× magnification after 12 hours (FIGS. 63A-F). White arrows indicate exemplary phagocytic events (pHrodo red targets within CELLTRACE Violet-labeled CD4 T cells).
Phagocytosis of Alectinib-treated ALK+A549 cells by CER-expressing T cells was also quantified. […] Bar graph in FIG. 64A represents quantification of percentage phagocytosis calculated as ((number of phagocytic target events)/(total number of effector cells))*100. Events were calculated from fluorescent 3×3 stitched images at 40×resolution after 12 hours of co-culture. Bar graph in FIG. 64B represents quantification of adjusted phagocytic index calculated as (median area ratio of target events in effector cells*phagocytosis). Events calculated from fluorescent 3×3 stitched images at 40×resolution after 12 hours of co-culture.
CER21−, CER27−, CER30−, CER108−, CER110−, CER112−, CER120−, CER123−, CER124−, CER126−, CER127−, or CER104-transduced CD4+ T cells were co-cultured with Alectinib-treated A549 cells at a 1:1 ratio for 12 hours. Phagocytic events were calculated from 3×3 stitched fluorescent microscopy images at 40X resolution. […] Images were obtained after 12 hours of co-culture. Yellow triangles indicate exemplary phagocytic events (pHrodo red targets within CELLTRACE violet labeled CD4+ T cells).
A time course study of phagocytic uptake of tumor cells by CER-transduced T cells was performed. CD4+ T cells were transduced with a lentiviral vector comprising CER122 nucleic acid. Mock-transduced (vector only) CD4+ T cells were used as control. CER122-transduced T cells were labeled with CELLTRACE violet and co-cultured with pHrodo red labeled A549 ALK+ lung adenocarcinoma cells. Fluorescent microscopy images were obtained at 4, 8, and 16 hours co-culture (FIG. 72C), and % phagocytosis (FIG. 72A) and phagocytic index (FIG. 72B) were calculated.

[1] = test system: H1975 lung adenocarcinoma cells; experiment: LDH assay, H1975 cells, 48 hours co-culture with 1 μM Osimeritinib; settings: E:T 1:1, 48 hours, CD4+ T cells
How it was run: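 H1975 EGFR-mutant cells were co-cultured 48 h with CER-expressing or mock-transduced CD4+ T cells at 1:1 effector:target, plus 1 μM osimertinib. After T cells were washed away, viable H1975 cells were quantified by colorimetric LDH assay in triplicate, expressed as % of control.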

Molecule	bright field microscopy of A549 ALK+ co-culture (A549 ALK+ cells; Alectinib 3.7 μM, 48 hours, vs mock-transduced T cells)	phagocytic elimination of ALK+A549 cells (ALK+A549 cells; 2.5 μM Alectinib, 12 hours)	killing of H1975 cells (LDH) [1]	in vitro growth/viability of A549 ALK+ cells (MTT) (A549 ALK+ cells; 48 hours)	in vitro growth/viability of A549 ALK+ cells (MTT) (A549 ALK+ cells; 72 hours)	phagocytic uptake of A549 ALK+ cells, time course (ALK+A549 cells; CD4+ T cells, 4, 8, and 16 hours co-culture)
B1	cluster of dead A549 ALK+ cells surrounded by phagocytic CER126^+ T cells	phagocytic elimination of ALK+A549 cells	synergistic killing of H1975 lung adenocarcinoma cells upon EGFR inhibition			
B2			synergistic killing of H1975 lung adenocarcinoma cells upon EGFR inhibition	synergistically suppress in vitro growth of NSCLC cells harboring ALK rearrangements	synergistically suppress in vitro growth of NSCLC cells harboring ALK rearrangements	phagocytic events by CER122-transduced T cells
